Results as given in the supplement of paper PMC7125110.
± gives the standard error. For part of these data: Variants at the floor of the assay were thinned out.

B1: glmS ribozyme (parent)
chain: AUAAAAGCGCCAGAACUACAGAAAUGUAGUUGACGAGGAGGAGGUUUAUCGAAUUUUCGGCGGAUGCCUCCAAA

Legend:
Details in all cases: with glucosamine-6-phosphate
[1] = variants of: B1; experiment: kcat; higher = faster cleavage; RNA array
Method in brief: (§1)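 The measurements used barcoded ribozyme variants on sequenced MiSeq chips, transcribed in situ by E. coli RNA polymerase and tracked at 37 °C with a hybridised Cy3 probe. Glucosamine-6-phosphate, 40 μM to 10 mM in HEPES/KCl/Mg(OAc)2 buffer, was flowed in while tiles were imaged over ~14 h. Baseline-normalised signals, also normalised to non-cleaving reference variants, gave per-tile medians that were fit to one- or two-exponential decays for kobs. kcat and KM resulted from weighted Michaelis–Menten fits across concentrations.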

[2] = variants of: B1; experiment: KM; higher = weaker cofactor use; RNA array
Method in brief: as §1

[3] = variants of: B1; experiment: self-cleavage kobs at 640 uM GlcN6P; higher = faster cleavage; RNA array
Method in brief: as §1

[4] = variants of: B1; experiment: self-cleavage kobs at 2500 uM GlcN6P; higher = faster cleavage; RNA array
Method in brief: as §1

[5] = variants of: B1; experiment: self-cleavage kobs at 10000 uM GlcN6P; higher = faster cleavage; RNA array
Method in brief: as §1

[6] = variants of: B1; experiment: self-cleavage kobs at 160 uM GlcN6P; higher = faster cleavage; RNA array
Method in brief: as §1

[7] = variants of: B1; experiment: self-cleavage kobs at 40 uM GlcN6P; higher = faster cleavage; RNA array
Method in brief: as §1

Variant: G40A A48U
- kcat [1]: 0.000176 ± 1.7e-05 s⁻¹
- KM [2]: 2780 ± 590 µM
- self-cleavage kobs at 640 uM GlcN6P [3]: 2.83e-05 ± 8.5e-06 s⁻¹
- self-cleavage kobs at 2500 uM GlcN6P [4]: 9.03e-05 ± 1.2e-05 s⁻¹
- self-cleavage kobs at 10000 uM GlcN6P [5]: 0.000133 ± 1.7e-05 s⁻¹

Variant: G41A A53C
- kcat [1]: 0.000213 ± 5.7e-05 s⁻¹
- self-cleavage kobs at 640 uM GlcN6P [3]: 8.67e-05 ± 2.5e-05 s⁻¹
- self-cleavage kobs at 2500 uM GlcN6P [4]: 0.000101 ± 2.7e-05 s⁻¹
- self-cleavage kobs at 10000 uM GlcN6P [5]: 0.000202 ± 3.9e-05 s⁻¹

Variant: C50G U54G
- kcat [1]: 4.74e-05 ± 1.5e-05 s⁻¹
- self-cleavage kobs at 160 uM GlcN6P [6]: 7.22e-05 ± 1.2e-05 s⁻¹
- self-cleavage kobs at 640 uM GlcN6P [3]: 4.18e-05 ± 1.1e-05 s⁻¹
- self-cleavage kobs at 2500 uM GlcN6P [4]: 3.85e-05 ± 1.5e-05 s⁻¹

Variant: A48C C67U
- kcat [1]: 0.000136 ± 1.3e-05 s⁻¹
- KM [2]: 4380 ± 1100 µM
- self-cleavage kobs at 2500 uM GlcN6P [4]: 5.35e-05 ± 1.4e-05 s⁻¹
- self-cleavage kobs at 10000 uM GlcN6P [5]: 9.42e-05 ± 1.2e-05 s⁻¹

Variant: G37C A52G
- kcat [1]: < 1e-05 s⁻¹
- self-cleavage kobs at 40 uM GlcN6P [7]: < 1e-05 s⁻¹

Variant: A33G A36C
- kcat [1]: 1.58e-05 ± 7.1e-06 s⁻¹
- self-cleavage kobs at 40 uM GlcN6P [7]: < 1e-05 s⁻¹
- self-cleavage kobs at 160 uM GlcN6P [6]: < 1e-05 s⁻¹
- self-cleavage kobs at 640 uM GlcN6P [3]: < 1e-05 s⁻¹
- self-cleavage kobs at 10000 uM GlcN6P [5]: < 1e-05 s⁻¹

Variant: C10U A36U
- kcat [1]: < 1e-05 s⁻¹
- self-cleavage kobs at 40 uM GlcN6P [7]: < 1e-05 s⁻¹
- self-cleavage kobs at 160 uM GlcN6P [6]: < 1e-05 s⁻¹
- self-cleavage kobs at 10000 uM GlcN6P [5]: < 1e-05 s⁻¹

Variant: U45A U47A
- kcat [1]: 0.0227 ± 0.0082 s⁻¹
- self-cleavage kobs at 40 uM GlcN6P [7]: 0.00126 ± 0.0002 s⁻¹
- self-cleavage kobs at 160 uM GlcN6P [6]: 0.00413 ± 0.001 s⁻¹
- self-cleavage kobs at 640 uM GlcN6P [3]: 0.00902 ± 0.0014 s⁻¹
- self-cleavage kobs at 2500 uM GlcN6P [4]: 0.0263 ± 0.0064 s⁻¹

Variant: A33C C58U
- kcat [1]: < 1e-05 s⁻¹
- self-cleavage kobs at 160 uM GlcN6P [6]: < 1e-05 s⁻¹
- self-cleavage kobs at 10000 uM GlcN6P [5]: < 1e-05 s⁻¹

Variant: C61A C70A
- kcat [1]: < 1e-05 s⁻¹
- self-cleavage kobs at 40 uM GlcN6P [7]: < 1e-05 s⁻¹
- self-cleavage kobs at 160 uM GlcN6P [6]: < 1e-05 s⁻¹

Variant: A12U G60U
- kcat [1]: 1.13e-05 ± 1.6e-06 s⁻¹
- self-cleavage kobs at 40 uM GlcN6P [7]: < 1e-05 s⁻¹
- self-cleavage kobs at 160 uM GlcN6P [6]: < 1e-05 s⁻¹
- self-cleavage kobs at 10000 uM GlcN6P [5]: < 1e-05 s⁻¹

Variant: U30G C67A C70U
- kcat [1]: 0.000403 ± 2.7e-05 s⁻¹
- KM [2]: 353 ± 78 µM
- self-cleavage kobs at 640 uM GlcN6P [3]: 0.00027 ± 6.3e-05 s⁻¹
- self-cleavage kobs at 2500 uM GlcN6P [4]: 0.000399 ± 0.00014 s⁻¹
- self-cleavage kobs at 10000 uM GlcN6P [5]: 0.000369 ± 8.4e-05 s⁻¹

Variant: G51U C58U
- kcat [1]: < 1e-05 s⁻¹
- self-cleavage kobs at 160 uM GlcN6P [6]: < 1e-05 s⁻¹
- self-cleavage kobs at 10000 uM GlcN6P [5]: < 1e-05 s⁻¹

Variant: U45G U56G
- kcat [1]: 0.00528 ± 0.00075 s⁻¹
- KM [2]: 2490 ± 520 µM
- self-cleavage kobs at 40 uM GlcN6P [7]: 8.78e-05 ± 1.3e-05 s⁻¹
- self-cleavage kobs at 160 uM GlcN6P [6]: 0.000245 ± 6.5e-05 s⁻¹
- self-cleavage kobs at 640 uM GlcN6P [3]: 0.0011 ± 0.00017 s⁻¹
- self-cleavage kobs at 2500 uM GlcN6P [4]: 0.0033 ± 0.00052 s⁻¹
- self-cleavage kobs at 10000 uM GlcN6P [5]: 0.00403 ± 0.00047 s⁻¹

Variant: U54A G59A
- kcat [1]: 6.69e-05 ± 7.1e-06 s⁻¹
- KM [2]: 4220 ± 1300 µM
- self-cleavage kobs at 10000 uM GlcN6P [5]: 4.72e-05 ± 7.4e-06 s⁻¹

Variant: A14U U47G
- kcat [1]: 0.00156 ± 0.00026 s⁻¹
- KM [2]: 1750 ± 450 µM
- self-cleavage kobs at 40 uM GlcN6P [7]: 5.6e-05 ± 8.8e-06 s⁻¹
- self-cleavage kobs at 160 uM GlcN6P [6]: 0.000115 ± 1.4e-05 s⁻¹
- self-cleavage kobs at 640 uM GlcN6P [3]: 0.000416 ± 4.8e-05 s⁻¹
- self-cleavage kobs at 2500 uM GlcN6P [4]: 0.000947 ± 0.00011 s⁻¹
- self-cleavage kobs at 10000 uM GlcN6P [5]: 0.00132 ± 0.00013 s⁻¹

Variant: U45G U54C
- kcat [1]: 0.0089 ± 0.00053 s⁻¹
- KM [2]: 1480 ± 160 µM
- self-cleavage kobs at 40 uM GlcN6P [7]: 0.000233 ± 5.4e-05 s⁻¹
- self-cleavage kobs at 160 uM GlcN6P [6]: 0.000851 ± 0.00024 s⁻¹
- self-cleavage kobs at 640 uM GlcN6P [3]: 0.00308 ± 0.00078 s⁻¹
- self-cleavage kobs at 2500 uM GlcN6P [4]: 0.00519 ± 0.00085 s⁻¹
- self-cleavage kobs at 10000 uM GlcN6P [5]: 0.00798 ± 0.001 s⁻¹
